Columns and labels:
iC3b [1] = molecular target: iC3b (UniProt P01024); assay: SPR; C3b deposited on a CM5 chip (amine-coupled seed, then convertase-mediated deposition to about 5000 RU), iC3b and C3dg made from it on the chip; αI domains injected as dilution series, 120 s; Biacore T200, 25 °C; HBST (10 mM HEPES, 150 mM NaCl, 0.005% Tween-20, pH 7.4) with 1 mM MgCl2; Langmuir 1:1 fit, KD calculated
iC3b [2] = molecular target: iC3b (UniProt P01024); assay: SPR; competitive: αI domains at 5 µM preincubated with simvastatin (3-100 µM), injected over immobilised iC3b or ICAM-1; HBST with 1 mM MgCl2 and 5% DMSO; signal as percent of the non-inhibited signal

Row | Kd (iC3b [1]) [µM] | residual binding activity with simvastatin (percent of the non-inhibited signal) (iC3b [2]) [%] | Binder
1 | 33 |  | CR4 αXI domain, wild type (WT) (domain or fragment) QEQDIVFLIDGSGSISSRNFATMMNFVRAVISQFQRPSTQFSLMQFSNKFQTHFTFEEFRRSSNPLSLLASVHQLQGFTYTATAIQNVVHRLFHASYGARRDAAKILIVITDGKKEGDSLDYKDVIPMADAAGIIRYAIGVGLAFQNRNSWKELNDIASKPSQEHIFKVEDFDALKDIQNQLKEKIFAI
2 | 2.6 | 63 | CR4 αXI domain, high-affinity (HA) variant p.I333G (domain or fragment) QEQDIVFLIDGSGSISSRNFATMMNFVRAVISQFQRPSTQFSLMQFSNKFQTHFTFEEFRRSSNPLSLLASVHQLQGFTYTATAIQNVVHRLFHASYGARRDAAKILIVITDGKKEGDSLDYKDVIPMADAAGIIRYAIGVGLAFQNRNSWKELNDIASKPSQEHIFKVEDFDALKDIQNQLKEKGFAI

From publication PMC11853025
